Source: patent US20210315969A1, “GLYCOPROTEINS HAVING LIPID MOBILIZING PROPERTIES AND THERAPEUTIC USES THEREOF” (Aston University, priority 2008, published 2021)

Legend:
[1] = test system: rat epididymal adipocytes; assay: Lipolytic activity in rat adipocytes; assay type: cell-based; details: concentrations between 233 and 700 nM
Procedure: Lipolytic Activity in Rat Adipocytes—White adipocytes were prepared from finely minced epididymal adipose tissue of male Wistar rats (400 g) using collagenase digestion, as described (Beck S A, et al. Production of lipolytic and proteolytic factors by a murine tumor-producing cachexia in the host. Cancer Res 47:5919-5923, 1987), Lipolytic activity was determined by incubating 10^5-2×10^5 adipocytes for 2 h in 1 ml Krebs-Ringer bicarbonate buffer, pH 7.2, and the extent of lipolysis was determined by measuring the glycerol released (Wieland O. Glycerol U V method. Methods of Enzymatic Analysis, edited by Bergmeyer H U, Academic Press, London, pp 1404-1409, 1974). Spontaneous glycerol release was measured by incubating adipocytes alone. Lipolytic activity was expressed as μmol glycerol released/10^5 adipocytes/2 h.

[2] = test system: epididymal adipocytes, gastrocnemius muscle and BAT; assay: Glucose uptake into epididymal adipocytes, gastrocnemius muscle and BAT of rats treated with ZAG; assay type: in vivo, Wistar rats
Procedure: FIG. 12D is a graphical diagram showing glucose uptake into gastrocnemius muscle and BAT of male Wistar rats after 10 days treatment with either ZAG or PBS. in the absence or presence of insulin (60 μU/ml). Differences between ZAG and PBS treated animals are shown as a, p<0.05, b, p<0.01 or c, p<0.001, while differences in the presence of insulin are shown as or f, p<0.001.
Glucose (intake into Atlipocpyes Isolated adipocytes (5×10^4) were washed twice in 1 ml Krebs-Ringer bicarbonate buffer, pH 7.2 (KRBS) and further incubated for 10 min at room temperature in 0.5 ml KRBS containing 18.5MBq […]-^14CI deoxy-D-glucose and non-radioactive 2-deoxy-D-glucose to a final concentration of 0.1 mM. Uptake was terminated by the addition of 1 ml ice-cold glucose-free KRBS, and the cells were washed three times with 1 ml KRBS, lysed by addition of 0.5 ml 1 M NaOH and left for at least 1 h at room temperature before the radioactivity was determined by liquid scintillation counting.
Glucose Uptake into Gostrocneinius Muscle—Gastrocnemius muscles were incubated in Krebs-Henseleit bicarbonate butler for 45 min at 37° C. and then incubated for a further 10 min in 5 ml Krebs-Henseleit butler containing 185M Bq 2-[1-^14C]deoxy-D-glucose and non-radioactive 2-deoxy-D-glucose to a final concentration of 0.1 mM. The muscles were then removed and washed in 0.9% NaCl for 5 min followed by dissolution in 0.5 ml 1M NaOH and the radioactivity was determined by liquid scintillation counting.

C2Cl2 myotubes = assay: ROS formation and PKR/eIF2α phosphorylation in myotubes treated with glucose; assay type: cell-based, murine
Excerpt: FIG. 21 is a graphical diagram showing ROS activity in C2Cl2 myotubes treated with various concentrations of glucose with and without ZAG. Statistically significant c, P<0.001 from control f, P<0.001 from glucose alone.
FIG. 22A is a pictorial diagram of a Western blot showing PKR in C2Cl2 myotubes treated with glucose with and without ZAG. Statistically significant c, P<0.001 from control f, P<0.001 from glucose alone.
FIG. 22B is a pictorial diagram of a Western blot showing elF2a in C2Cl2 myotubes treated with glucose with and without ZAG. Statistically significant c, P<0.001 from control f, P<0.001 from glucose alone.
It has been shown that formation of reactive oxygen species (ROS) is important in protein degradation induced by high glucose load. […] High glucose also induces activation (phosphoiylation) of PKR (FIG. 22A) and the subsequent phosphorylation of elf2α (FIG. 22B) as is seen in skeletal muscle of ob/ob mice, which was also attenuated by ZAG.

[3] = Glucose and triolein oxidation, tissue glucose utilization and BAT oxygen uptake in mice treated with ZAG; assay type: in vivo
Excerpt: FIG. 12E is a graphical diagraph showing tissue Rg in ob/ob mice administered ZAG, c, p<0.001 from PBS.
FIG. 24 is a graphical diagram showing the oxidation of D-[U-^14C glucose] to ^14CO2 in ob/ob mice.
FIG. 25 is a graphical diagram showing production of ^14CO^2 from [^14C carboxy] triolein in ob/ob mice.

adipocytes = assay: Lipolytic responsiveness of adipocytes from ZAG treated ob/ob mice to isoprenaline or BRL37344; assay type: in vivo
Excerpt: FIG. 5K is a graphical diagram showing the response of adipocytes from epididymal (ep), subcutaneous (sc) and visceral (vis) deposits from ob/ob mice treated with either PBS or ZAG for 5 days to the lipolytic effect of BRI,37344, Differences from PBS controls are indicated as *** p<0.01, while differences in the presence of PD98059 is shown as # p<0.001.
FIG. 9 is a graphical diagram showing glycerol release stimulated by isoprenaline (iso) isolated adipocytes which have been in culture up to 5 days from ob mice treated with and without ZAG.
Lipolytic Assay—Samples to be assayed were incubated with 10^5 to 2×10^5 adipocytes for 2 h in 1 ml Krebs-Ringer bicarbonate buffer, pH 7.2. The concentration of glycerol released was determined enzymatically by the method of Wieland (Wieland, O. Glycerol UV method. In Methods of Enzymatic Analysis (ed. Bergmeyer, H. U.) (Academic Press, London, UK, pp 1404-1409, 1974)). Control samples containing adipocytes alone were analysed to determine the spontaneous glycerol release. Activity was expressed as nmol glycerol released/10^5 adipocytes/2 h.
Adipocytes were removed from mice after 5 days of ZAG and their responsiveness to isoprenaline (iso) was measured after culture in the absence of ZAG (FIG. 9), The responsiveness to iso is higher in ZAG treated mice and this continues for a further 4 days (Which was when expression of ZAG and HSL were increased) and then falls on day 5 (when expression was not increased) down to values of PBS control.
The data shown in Attachment 1 is from a 5 day study where ZAG was administered at 35 μg per day i.v. on a daily basis for 5 days. At the end of the experiment tissues were removed and blotted, or functional assays were carried out with isolated adipocytes. […] When ep adipocytes were prepared and maintained in tissue culture (RPMI 1640 ±10% FCS) ZAG expression was maintained for a further 3 days, even though no ZAG was added to the culture medium (FIG. 6B). […] In fact, as discussed above, too much ZAG is more likely to lead to resistance rather than an increased response.

B1: Zinc-α2-glycoprotein (protein, listed as Homo sapiens)
chain: QENQDGRYSLTYIYTGLSKHVEDVPAFQALGSLNDLQFFRYNSKDRKSQPMGLWRQVEGMEDWKEDSQLQKAREDMETLKDIVEYYNDSNGSHVLQGRFGCEIENNRSSGAFWKYYYDGKDYIEFNKEIPAWVPFDPAAQITKQKWEAEPVYVQRAKAYLEEECPATLRKYLKYSKNILDRQDPPSVVVTSHQAPGEKKKLKCLAYDFYPGKIDVHWTRAGQVQEPELRGDVLHNGNGTYQSWVVVAVPPQDTAPYSCHVQHSSLAQPLVVPWEAS
notes: recombinant human Zinc-α2-glycoprotein, lipid mobilizing factor, expressed in HEK293F cells
For B1, the glycerol release [1] was “dose-related increase”, the “glucose uptake into gastrocnemius muscle and BAT” value ([2]; absence of insulin, vs PBS) was “small, non-significant increase” and the “glucose uptake into adipocytes, ZAG versus PBS treated animals” value ([2]; presence of insulin (60 μU/ml)) was “no significant difference”. For the same molecule, the “glucose uptake into gastrocnemius muscle and BAT” value ([2]; presence of insulin (60 μU/ml)) was “significant increase in uptake”, the “glucose induced phosphorylation of PKR and eIF2α” value (C2Cl2 myotubes) was “attenuated” and the “increase in ROS produced by glucose” value (C2Cl2 myotubes) was “completely attenuates”. The “glucose utilization/oxidation by brain, heart, BAT and gastrocnemius muscle” value [3] was “increased glucose utilizationloxidation”, the “production of 14CO2 from D-[U-14C] glucose and [14C carboxy] triolein” value [3] was “increased production” and the “responsiveness of adipocytes to isoprenaline” value (adipocytes; adipocytes from mice after 5 days ZAG, cultured in absence of ZAG) was “higher”. For the same molecule, the “lipolytic response of epididymal adipocytes to the β3 agonist BRL37344” value (adipocytes; adipocytes from mice treated 5 days) was “increased lipolytic response” and the “time the increased response to isoprenaline was maintained in tissue culture” value (adipocytes; isoprenaline 10 μM, absence of ZAG) was 4 days.
